The values that follow come from article PMC4977500, “Rescuing neuronal cell death by RAIDD- and PIDD- derived peptides and its implications for therapeutic intervention in neurodegenerative diseases” (Scientific Reports, 2016).

The labels stand for the following.
B2: RAIDD DD (domain or fragment)
chain: not shown
notes: RAIDD death domain, amino acids 94-199; also called RAIDD death domain; source: E. coli BL21 (DE3) RILP, purified
B3: PIDD DD (domain or fragment, UniProt Q9HB75 777-883, looked up)
chain: LNLGDAETGFLTQSNLLSVAGRLGLDWPAVALHLGVSYREVQRIRHEFRDDLDEQIRHMLFSWAERQAGQPGAVGLLVQALEQSDRQDVAEEVRAVLELGRRKYQDS
notes: PIDD death domain, amino acids 777-883; The His tag is named on the protein for the pull-down; also called his-tagged PIDD DD; PIDD death domain; source: E. coli BL21 (DE3) RILP, purified

What all share (details): both partners purified
For the assay “PIDD DD”, the target named is B3. The experiment in a line: native gel or EMSA; native-PAGE on a PhastSystem, 8-25% acrylamide gradient gels, Coomassie staining; complexes in 20 mM Tris pH 8.0, 50 mM NaCl; pre-incubated with or without peptide for 1 hour at room temperature; complex band without peptide taken as 100%. (A gel shift assay detects complexes by their altered migration in electrophoresis.)

The target of assay [1] is T1, Full-length RAIDD without any tag (UniProt P78560 1-199).
T1 construct: RAIDD, full length, amino acids 1-199; source: E. coli BL21 (DE3), purified
T1 sequence (P78560 whole entry, the tested form may be a part): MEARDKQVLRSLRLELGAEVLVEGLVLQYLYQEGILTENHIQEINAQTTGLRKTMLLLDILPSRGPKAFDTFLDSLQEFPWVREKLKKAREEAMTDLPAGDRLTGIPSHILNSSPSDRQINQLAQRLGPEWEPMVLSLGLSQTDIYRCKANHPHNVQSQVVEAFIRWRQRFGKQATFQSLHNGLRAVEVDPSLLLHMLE
The experiment in a line: pull-down; his-tagged PIDD DD on Ni-NTA beads, full-length RAIDD without any tag, with RDH3 or PDH3 (30 μM or 500 μM); wash 20 mM Tris-HCl pH 7.9, 500 mM NaCl, 30 mM imidazole; eluate on SDS-PAGE.

The target in the next assay is T2, full-length RAIDD (UniProt P78560 1-199).
T2 construct: RAIDD, full length, amino acids 1-199; source: E. coli BL21 (DE3), purified (Ni-NTA, S-200 gel filtration)
T2 sequence (P78560 whole entry, the tested form may be a part): as above
Description: native gel or EMSA; native-PAGE on a PhastSystem, 8-25% acrylamide gradient gels, Coomassie staining; complexes in 20 mM Tris pH 8.0, 50 mM NaCl; pre-incubated with or without peptide for 1 hour at room temperature; complex band without peptide taken as 100%.

The assay “RAIDD DD” concerns the target B2. The assay is described as above.

Sequence of RAIDD DD (P78560 94-199): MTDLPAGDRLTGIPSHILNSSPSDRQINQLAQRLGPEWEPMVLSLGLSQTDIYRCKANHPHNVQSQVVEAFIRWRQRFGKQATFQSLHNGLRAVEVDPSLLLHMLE

B1: RDH3 (TAT-fused peptide with wildtype RAIDD DD helix 3) (peptide)
peptide: YGRKKRRQRRRGGGGLSQTDIYRCKANHPHNV
notes: RAIDD helix 3 (H3 of the death domain), wildtype; FITC-labelled versions were also made, but only for microscopy of cell entry; also called RAIDD DD H3; source: synthetic peptide (Peptron)
B1: in the assay with PIDD DD, the “fold inhibitory capacity against TAT-Y814A (blocking of RAIDD DD:PIDD DD)” value was more than 5 fold. B2: in the assay with PIDD DD, the binding result is “binds”. Turning to B3, the binding result (in assay [1]; in the assay with full-length RAIDD) was “binds” throughout.

B4: PDH3 (TAT-fused peptide with wildtype PIDD DD helix 3) (peptide)
peptide: YGRKKRRQRRRGGGGVSYREVQRIRHEFR
notes: PIDD helix 3 (H3 of the death domain), wildtype; FITC-labelled versions were also made, but only for microscopy of cell entry; also called PIDD H3; source: synthetic peptide (Peptron)
As to B4, the “fold inhibitory capacity against TAT-Y814A (blocking of RAIDD DD:PIDD DD)” value with RAIDD DD was more than 5 fold.
